# According to the supplement of paper PMC12042874:
# ± gives the uncertainty stated by the source.
# Experiment: amyloid nucleation score (Sup35N fusion, yeast selection) (log enrichment); library NNK3; higher = more nucleation; inactive = no reads after selection
# In short: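 Three technical output replicates were used for random libraries. Psi-negative yeast expressing peptides of 20 random codons fused to Sup35N were induced with 100 μM copper sulfate for 24 hours and grown 7 days at 30°C on medium lacking adenine and uracil, and input and output plasmid inserts were Illumina-sequenced, excluding sequences with under 100 input reads. The nucleation score is the DiMSum log enrichment of output over input reads, centred on the mode score of non-aggregating sequences.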
row,Substance,amyloid nucleation score
1,SHVQWPDAFFYRTSFGQLLS,inactive
2,NIIYYTTVGHVHSVW,1.04 ± 0.18
3,ENCAWSRIIRRFNECNTLV,inactive
4,ANCSWWSWESMNCCYIGWIF,1.54 ± 0.071
5,TGRVCFLCYTMSLIWSSPVT,0.07 ± 0.7
6,CYRISSESWSTWWIYFWSCR,inactive
7,DRGVLFRHIILGSPHIMNRV,inactive
8,CFRVYVPNSKSDDL,inactive
9,KSYWCNVGAIENT,inactive
10,GLVYWVQHGCWLTAIQSVLV,inactive
11,AHGFLSVFV,0.92 ± 0.12
12,CLTTVRLRNYFF,inactive
13,LAYQGSGLIQQLAGLKHTTV,inactive
14,GSSCRRINTEYSLAAYQSYE,inactive
15,GNFINHT,inactive
16,WEILYPEGWFWTFRRSGVGS,inactive
17,WPLYNFVISWIGRTYYSVYL,inactive
18,QNECLGHQNWLNVVLKVAMM,inactive
19,IAVDFRYCYDYGSNSSCRLA,1.88 ± 0.11
20,YSSARTFSLHCIERLYSGYV,inactive
21,QGNAVHRDASSGWMNSAFDR,inactive
22,FPENIVYGHEGLD,inactive
23,DRRNNVRFVVLFSRRYCGQA,inactive

row,Substance,amyloid nucleation score
1,YSRDIYVLEHV,inactive
2,TDRVNFSRLFSLIHDWLTPG,inactive
3,NRFYVD,inactive
4,TVEVFNHMRERHNYMS,inactive
5,KGKITCM,inactive
6,VWEFICVGVLC,2.65 ± 0.05
7,TLNIDGFIVFRTEVKGKLSY,inactive
8,IVLCMVFCWSRPWEVIIFKV,inactive
9,VLGDMVYGGHAL,inactive
10,EWIGVVNVRNDPPSGC,inactive
11,SLSFSVLLHWIFCYFWILY,inactive
12,LHTSTTPKTMKRRSQLSNQK,inactive
13,SCQKIALIWIRLTTDMRRRC,inactive
14,VCEQYFGRCNLRNKFCIWTL,inactive
15,VTKPFTIKGTI,inactive
16,VDGATFFISWKIMARDSYRY,inactive
17,RVVAFHIANDLLLSLKKS,1.39 ± 0.093
18,MNRNVTSRVRTPPVCVRVRF,inactive
19,ISVFIRTCMWKFVVVPRGYW,inactive
20,VVQGGGELVWFMFYDARCGT,inactive
21,FTSYRSEPTIYALLCLGLSL,2.08 ± 0.093
22,HYRYGKHREKMLMSAIVWLS,inactive
23,YRAYYSYSFRW,inactive

row,Substance,amyloid nucleation score
1,CECTRVCRVCPSVSMHAIK,inactive
2,VTVSHCRIRFFRLESDDGLC,-0.218 ± 0.88
3,KIMCGGTVSERETRTLHQSG,inactive
4,LLKHMSLFVLRSSNR,inactive
5,DNDVHKELFSPAASLSSTWS,inactive
6,VHKYSVDFGKGW,inactive
7,KVYKLGVSRRSVKAT,inactive
8,TLLMMYKVGYLAMAIRMGGL,inactive
9,DMDDHPDYHRNTND,inactive
10,MLSGWFGLMIGCTAVVWSDS,inactive
11,LSVELCTCGVRPQATYYPQG,1.31 ± 0.13
12,LKNHNLVTKHYYARLMIGLW,inactive
13,RTPVKGDRKSWTDRPISTAY,inactive
14,PYTWAMHLNLLITTDR,-0.032 ± 0.54
15,KYYLALIYSKLRMIVSCFGF,0.033 ± 0.44
16,SHFTEFPYLGLHTYAVVE,inactive
17,FLVLTNHRGARVRASCVMDR,inactive
18,TDDAGMYDNRFQSMSDENTF,inactive
19,NLDIWNLRQWSGVVYLV,0.751 ± 0.14
20,IGWKEVSA,-0.006 ± 0.35
21,VLRKLYLSPDSGVNYCGDPV,inactive
22,LRNLVTWRVQSKWFSIQSSW,inactive
23,ILQCGS,inactive

row,Substance,amyloid nucleation score
1,RRNYRSFKDLLFHDYTFMDS,inactive
2,PWDQDGGSTYSKGGPSNWEF,inactive
3,TPIHRL,0.451 ± 0.16
4,VEAHLLL,0.01 ± 0.87
5,DLNRYSWSRKRRLCCSHCRG,inactive
6,SYFSYPCCCCVVARFLNYVC,inactive
7,VWGAHPLFGSISVARTISNW,inactive
8,REGCHPFELSDPDGDHLVRF,inactive
9,LLDSVNGHCYMCLTIMGVRN,inactive
10,WIMWNMRAKNLKLLPARARV,inactive
11,TSLDCYLMRLFLGWEALKVW,inactive
12,RTFIKAKLP,inactive
13,SSDYTLVEILSVLFCPVGCS,inactive
14,RLVCCKSHPFDVRYF,inactive
15,RFLLDRACLWLRGVI,inactive
16,VGCRMPVACRTWRDKYALAR,inactive
17,LFNLGICYTISNYSLSLEQS,2.1 ± 0.086
18,TLNVFVNN,2.26 ± 0.056
19,WVCYNKFSVCVWLVDKAD,2.01 ± 0.095
20,IDCCWSCV,0.16 ± 0.34
21,LYRVVYFDALKNCGYVVSFW,inactive
22,RQHMDGVVDI,inactive
23,LCLVLWVSK,inactive

row,Substance,amyloid nucleation score
1,CVMGIRIHPFVVYNGQGGTS,inactive
2,LIRCCFPHMSGVLFMKFTLT,inactive
3,KVVMGVGLQRDESGIEGQLG,inactive
4,HVTRLVFMNSRYVAKFVGRA,inactive
5,TNFSRYEDFVLLFCPILYAF,inactive
6,MSSSIILWNFCNMDRCSLLV,-0.084 ± 0.49
7,VMCVFLLYI,1.08 ± 0.11
8,TSTDVQVGYVNMLLLRVLFF,inactive
9,LHLGMRLV,inactive
10,FIEVYCKMGCLRYLVWGWSD,inactive
11,SRRVISEHSMEGNTID,inactive
12,FGGSILTSYINGRGSAGLNW,0.797 ± 0.22
13,SNLLS,inactive
14,FVVFIRDIICMVNNFMLMRM,inactive
15,YLVRLVSDITRKNR,2.37 ± 0.071
16,SPCYISINTFPVRKILYPCI,-0.264 ± 0.64
17,ILTYINEMSHLPWV,inactive
18,DGMTKFRWSCVRWVCG,inactive
19,GAGYADICPTAFHMPRWVFN,inactive
20,CSRLPVHRFIP,inactive
21,IVRIVK,inactive
22,VIANVKIMTFFMAFSAVHTM,1.48 ± 0.13
23,RTLVPGTHR,inactive

row,Substance,amyloid nucleation score
1,TNVRALA,inactive
2,FTFCTCAKSAWTGLGLQGKI,inactive
3,PVRSPAACGDRLSVRVANME,inactive
4,PCILPKRTRIIVR,inactive
5,IYGWWLGTTYM,0.656 ± 0.21
6,AMILVRVYGVKRVWAYLLVW,inactive
7,NLWVEGRKAQENMDPDARSR,inactive
8,IDFRFFQPQAVCGNLSCYRE,0.227 ± 0.23
9,FVSVDGWSESMWLASVVLSE,inactive
10,MFFELSLIISCFTEV,1.42 ± 0.11
11,RFDDRG,inactive
12,IGKFPDRCTFVQTKYFYVRS,1.48 ± 0.075
13,ILIYVQML,0.521 ± 0.22
14,GESAKDVFGSLCRRLISIQL,inactive
15,LNLGHDGYPNTSARVFHFC,inactive
16,SSFQSYYTSSDMTEF,inactive
17,RMVHS,1.62 ± 0.091
18,TATHKLTNIPW,inactive
19,SSITRVEKSCIFLCTALMLR,inactive
20,GTYCFINLTTRTGDRKGRHA,1.05 ± 0.12
21,GHVSTCPNDGAAALSCLELF,inactive
22,WRRLRATISNGAWD,inactive
23,ALNFPYSSRVFYFKDSAHAF,inactive

row,Substance,amyloid nucleation score
1,VLDVFKGIW,inactive
2,FYHNNYINANHVWRKSY,inactive
3,CVQRVREYVGT,inactive
4,GQNPSLRLVKESGF,inactive
5,TNCGNQTILFIIYVTILEVC,0.397 ± 0.14
6,IWICYWSCRIKAYRLSNFFD,inactive
7,GVGSRG,inactive
8,DGDIVQCSSLCKVSGFLFTS,inactive
9,LYIIFHNKYFLVEMGNYNCC,1.88 ± 0.07
10,FLDVFLEFSILIFPSVTFKC,inactive
11,ISTKDTLM,inactive
12,YMRDVDFIRSEGG,inactive
13,RFYNDW,inactive
14,NPKLG,inactive
15,CKGNINTYGYLYLDVYFYIM,1.94 ± 0.073
16,AHITRGNKSGAVFASCRTWS,inactive
17,WCPSQDNFWQNFLF,-0.079 ± 0.23
18,SKLLIPHNNGRYSFFWSIGM,2.04 ± 0.078
19,FIPGMQA,inactive
20,WSRHSTMGTRPEKQVLWPAG,inactive
21,FTESVASYELAQVVSRSMLC,inactive
22,QTSST,inactive
